# Assay results published in publication PMC3145977, “Thermostabilisation of an Agonist-Bound Conformation of the Human Adenosine A2A Receptor” (Journal of Molecular Biology, 2011).
# B1: GL10: A2AR mutant L48A-Q89A (protein, UniProt P29274 1-412, looked up, variant L48A Q89A)
# Adenosine receptor A2a: MPIMGSSVYITVELAIAVLAILGNVLVCWAVWLNSNLQNVTNYFVVSAAAADIAVGVLAIPFAITISTGFCAACHGCLFIACFVLVLTASSIFSLLAIAIDRYIAIRIPLRYNGLVTGTRAKGIIAICWVLSFAIGLTPMLGWNNCGQPKEGKNHSQGCGEGQVACLFEDVVPMNYMVYFNFFACVLVPLLLMLGVYLRIFLAARRQLKQMESQPLPGERARSTLQKEVHAAKSLAIIVGLFALCWLPLHIINCFTFFCPDCSHAPLWLMYLAIVLSHTNSVVNPFIYAYRIREFRQTFRKIIRSHVLRQQEPFKAAGTSARVLAAHGSDGEQVSLRLNGHPPGVWANGSAPHPERRPNGYALGLVSGGSAQESQGNTGLPDVELLSHELKGVCPEPPGLDDPLAQDGAGVS
# B2: GL26: A2AR mutant L48A-Q89A-T65A-A54L (protein, UniProt P29274 1-412, looked up, variant L48A Q89A T65A A54L)
# Adenosine receptor A2a: MPIMGSSVYITVELAIAVLAILGNVLVCWAVWLNSNLQNVTNYFVVSAAAADILVGVLAIPFAIAISTGFCAACHGCLFIACFVLVLTASSIFSLLAIAIDRYIAIRIPLRYNGLVTGTRAKGIIAICWVLSFAIGLTPMLGWNNCGQPKEGKNHSQGCGEGQVACLFEDVVPMNYMVYFNFFACVLVPLLLMLGVYLRIFLAARRQLKQMESQPLPGERARSTLQKEVHAAKSLAIIVGLFALCWLPLHIINCFTFFCPDCSHAPLWLMYLAIVLSHTNSVVNPFIYAYRIREFRQTFRKIIRSHVLRQQEPFKAAGTSARVLAAHGSDGEQVSLRLNGHPPGVWANGSAPHPERRPNGYALGLVSGGSAQESQGNTGLPDVELLSHELKGVCPEPPGLDDPLAQDGAGVS
# B3: GL7: A2AR mutant L48A-T65A (protein, UniProt P29274 1-412, looked up, variant L48A T65A)
# Adenosine receptor A2a: MPIMGSSVYITVELAIAVLAILGNVLVCWAVWLNSNLQNVTNYFVVSAAAADIAVGVLAIPFAIAISTGFCAACHGCLFIACFVLVLTQSSIFSLLAIAIDRYIAIRIPLRYNGLVTGTRAKGIIAICWVLSFAIGLTPMLGWNNCGQPKEGKNHSQGCGEGQVACLFEDVVPMNYMVYFNFFACVLVPLLLMLGVYLRIFLAARRQLKQMESQPLPGERARSTLQKEVHAAKSLAIIVGLFALCWLPLHIINCFTFFCPDCSHAPLWLMYLAIVLSHTNSVVNPFIYAYRIREFRQTFRKIIRSHVLRQQEPFKAAGTSARVLAAHGSDGEQVSLRLNGHPPGVWANGSAPHPERRPNGYALGLVSGGSAQESQGNTGLPDVELLSHELKGVCPEPPGLDDPLAQDGAGVS
# B4: GL8: A2AR mutant L48A-F79A (protein, UniProt P29274 1-412, looked up, variant L48A F79A)
# Adenosine receptor A2a: MPIMGSSVYITVELAIAVLAILGNVLVCWAVWLNSNLQNVTNYFVVSAAAADIAVGVLAIPFAITISTGFCAACHGCLAIACFVLVLTQSSIFSLLAIAIDRYIAIRIPLRYNGLVTGTRAKGIIAICWVLSFAIGLTPMLGWNNCGQPKEGKNHSQGCGEGQVACLFEDVVPMNYMVYFNFFACVLVPLLLMLGVYLRIFLAARRQLKQMESQPLPGERARSTLQKEVHAAKSLAIIVGLFALCWLPLHIINCFTFFCPDCSHAPLWLMYLAIVLSHTNSVVNPFIYAYRIREFRQTFRKIIRSHVLRQQEPFKAAGTSARVLAAHGSDGEQVSLRLNGHPPGVWANGSAPHPERRPNGYALGLVSGGSAQESQGNTGLPDVELLSHELKGVCPEPPGLDDPLAQDGAGVS
# B5: GL9: A2AR mutant L48A-F83A (protein, UniProt P29274 1-412, looked up, variant L48A F83A)
# Adenosine receptor A2a: MPIMGSSVYITVELAIAVLAILGNVLVCWAVWLNSNLQNVTNYFVVSAAAADIAVGVLAIPFAITISTGFCAACHGCLFIACAVLVLTQSSIFSLLAIAIDRYIAIRIPLRYNGLVTGTRAKGIIAICWVLSFAIGLTPMLGWNNCGQPKEGKNHSQGCGEGQVACLFEDVVPMNYMVYFNFFACVLVPLLLMLGVYLRIFLAARRQLKQMESQPLPGERARSTLQKEVHAAKSLAIIVGLFALCWLPLHIINCFTFFCPDCSHAPLWLMYLAIVLSHTNSVVNPFIYAYRIREFRQTFRKIIRSHVLRQQEPFKAAGTSARVLAAHGSDGEQVSLRLNGHPPGVWANGSAPHPERRPNGYALGLVSGGSAQESQGNTGLPDVELLSHELKGVCPEPPGLDDPLAQDGAGVS
# System: [^3H]NECA-bound A2AR
# Assay: Thermostability assay of detergent-solubilised receptor with [3H]NECA bound (ligand plus format)
# Format: physicochemical, human
# Conditions: not given
# Procedure: […]. After solubilisation in DDM, A2AR was bound to Ni^2+-NTA resin, washed to reduce the DDM concentration and then eluted (see Methods). […]. An aliquot of E. coli cells (14 mL) was thawed on ice and resupended in 500 μL of buffer A [50 mM Tris–HCl (pH 7.4), 0.4 M NaCl, 250 μg/mL lysozyme (Sigma) and 1 mg/mL DNase I (Sigma), supplemented with complete ethylenediaminetetraacetic acid (EDTA)-free Protease inhibitor cocktail (Roche)] and incubated for 1 h at 4 °C. Samples were then sonicated for 1 min at 4 °C using a cup-horn sonicator. The receptors were solubilised by adding 1% DDM and incubated for 1 h at 4 °C. Insoluble material was removed by centrifugation (5 min, 13,000g, 4 °C). The solubilised receptors were partially purified with Ni-NTA agarose (Qiagen). Agarose beads (300 μL) pre-equilibrated in buffer A were added to 700 μL of solubilised receptor. […].
# The sample was incubated for 45 min at 4 °C, then 30 min at the specified temperature and then 30 min at 4 °C. Receptor-bound and free radioligands were separated as previously described on mini gel-filtration columns.[26] Receptor-bound ligands were transferred to a 96-well plate (PerkinElmer) and mixed with 200 μL of Optiphase supermix (PerkinElmer). The bound ^3H-labeled ligand was determined using a 1450 Microbeta Trilux counter (1 min per sample).
# For all the thermostabilisation studies carried out in our laboratory, the apparent Tm is the temperature for which 50% of the solubilised receptor remains folded after 30 min of incubation. The rate constant of the protein denaturation is a function of the temperature, and consequently, thermal denaturation of a protein can be compared to a chemical reaction for which the rate of the reaction is dependant on the temperature. Arrhenius established that any chemical reaction is temperature dependant. […]. The reference measurement representing the total binding activity of the sample A0 was considered to be measured at 4 °C. From the graphical representation t = Log10(t1/2) (Fig. 2c), we could extract a half-life for each construct at any temperature to define the improvement in stability of the various mutants compared to WT A2AR.
Molecule,"Apparent Tm in DDM, Single measurement","Apparent Tm in DM, Single measurement"
B1,47.5 °C,
B2,,46 °C
B3,45 °C,
B4,45.5 °C,
B5,43.5 °C,

# Same assay, conditions: DM
row,Molecule,Increase in stability versus WT receptor in DM
1,B2,21.5 °C

# Same assay, conditions: [3H]NECA bound; DDM; from Fig. 2c
row,Molecule,Improvement in stability compared to WT based on t1/2 (decrease in rate of unfolding)
1,B1,136 fold
